Data reported in PMC3840697 (Angewandte Chemie (International Ed. in English), 2013).

Biological target: T1, exosome core with Rrp42 N9A (state A mutant) (UniProt Q9UXC2 1-248; Q9UXC0 1-275, N9A)
T1 sequence 1: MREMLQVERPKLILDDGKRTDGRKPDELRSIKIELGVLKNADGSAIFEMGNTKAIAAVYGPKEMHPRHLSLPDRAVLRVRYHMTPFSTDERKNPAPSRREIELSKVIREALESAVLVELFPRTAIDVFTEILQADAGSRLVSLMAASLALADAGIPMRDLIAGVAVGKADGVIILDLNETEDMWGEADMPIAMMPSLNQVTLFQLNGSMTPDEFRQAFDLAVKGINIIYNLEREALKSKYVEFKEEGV
T1 sequence 2: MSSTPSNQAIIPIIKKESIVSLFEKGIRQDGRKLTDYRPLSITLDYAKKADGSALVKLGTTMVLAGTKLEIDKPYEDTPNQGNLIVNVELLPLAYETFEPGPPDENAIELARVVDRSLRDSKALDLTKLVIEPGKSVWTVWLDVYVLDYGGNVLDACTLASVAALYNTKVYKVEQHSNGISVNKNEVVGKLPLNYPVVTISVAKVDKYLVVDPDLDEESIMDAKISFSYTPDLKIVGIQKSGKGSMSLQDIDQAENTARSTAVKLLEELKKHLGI
Test: methyl TROSY NMR spectra of free and cap-bound exosome core

binding result: binds
B1: Rrp4 (exosome cap protein) (natural protein)
chain: MNMSQSQKIVLQPRSIVVPGELLAEGEFQIPWSPYILKINSKYYSTVVGLFDVKDTQFEVIPLEGSFYYPKINDIVIGLVEDVEIYGWVVDIKAPYKAYLPASNLLGRSINVGEDLRRYLDVGDYVIARIENFDRSIDPVLSVKGKDLGRVSNGIVIDIMPVKVPRVIGKNKSMYETLTSKSGCSIFVANNGRIWATCPSRFSEEILIEAIRKIENESHIKGLTDRIKQFIEEKLGERNASSGETKTNS
